For two substances, stoichiometry N results are on record in PMC5183740.

For experiment [1], the target named is SA-HA2 (streptavidin core fused to residues 76-130 of HA2 of A/PARIS/2590/2009 (H1N1)) (Streptomyces avidinii | influenza A virus A/PARIS/2590/2009 (H1N1)). As to the kind of experiment: SDS-PAGE of unheated samples.
Experiment [2] concerns the target SA-NP (streptavidin core fused to the nucleoprotein NP of A/PARIS/2590/2009 (H1N1)) (Streptomyces avidinii | influenza A virus A/PARIS/2590/2009 (H1N1)). Briefly: SDS-PAGE of unheated samples.

A word on the stoichiometry N: it is the number of molecules, sites or subunits per partner or assembly. As for “SA-HA2 (streptavidin core fused to residues 76-130 of HA2 of A/PARIS/2590/2009 (H1N1))”, in experiment [1], the stoichiometry N was found to be 4.
For the substance “SA-NP (streptavidin core fused to the nucleoprotein NP of A/PARIS/2590/2009 (H1N1))”, the stoichiometry N in experiment [2] came to 4.
